Laboratory results as given in IntAct's records for PubMed 25173175.

B1: Cohesin subunit SA-2 (Homo sapiens), Q8N3U4 (parent)
chain: MIAAPEIPTDFNLLQESETHFSSDTDFEDIEGKNQKQGKGKTCKKGKKGPAEKGKGGNGGGKPPSGPNRMNGHHQQNGVENMMLFEVVKMGKSAMQSVVDDWIESYKHDRDIALLDLINFFIQCSGCKGVVTAEMFRHMQNSEIIRKMTEEFDEDSGDYPLTMAGPQWKKFKSSFCEFIGVLVRQCQYSIIYDEYMMDTVISLLTGLSDSQVRAFRHTSTLAAMKLMTALVNVALNLSINMDNTQRQYEAERNKMIGKRANERLELLLQKRKELQENQDEIENMMNAIFKGVFVHRYRDAIAEIRAICIEEIGIWMKMYSDAFLNDSYLKYVGWTMHDKQGEVRLKCLTALQGLYYNKELNSKLELFTSRFKDRIVSMTLDKEYDVAVQAIKLLTLVLQSSEEVLTAEDCENVYHLVYSAHRPVAVAAGEFLYKKLFSRRDPEEDGMMKRRGRQGPNANLVKTLVFFFLESELHEHAAYLVDSMWDCATELLKDWECMNSLLLEEPLSGEEALTDRQESALIEIMLCTIRQAAECHPPVGRGTGKRVLTAKEKKTQLDDRTKITELFAVALPQLLAKYSVDAEKVTNLLQLPQYFDLEIYTTGRLEKHLDALLRQIRNIVEKHTDTDVLEACSKTYHALCNEEFTIFNRVDISRSQLIDELADKFNRLLEDFLQEGEEPDEDDAYQVLSTLKRITAFHNAHDLSKWDLFACNYKLLKTGIENGDMPEQIVIHALQCTHYVILWQLAKITESSSTKEDLLRLKKQMRVFCQICQHYLTNVNTTVKEQAFTILCDILMIFSHQIMSGGRDMLEPLVYTPDSSLQSELLSFILDHVFIEQDDDNNSADGQQEDEASKIEALHKRRNLLAAFCKLIVYTVVEMNTAADIFKQYMKYYNDYGDIIKETMSKTRQIDKIQCAKTLILSLQQLFNEMIQENGYNFDRSSSTFSGIKELARRFALTFGLDQLKTREAIAMLHKDGIEFAFKEPNPQGESHPPLNLAFLDILSEFSSKLLRQDKRTVYVYLEKFMTFQMSLRREDVWLPLMSYRNSLLAGGDDDTMSVISGISSRGSTVRSKKSKPSTGKRKVVEGMQLSLTEESSSSDSMWLSREQTLHTPVMMQTPQLTSTIMREPKRLRPEDSFMSVYPMQTEHHQTPLDYNRRGTSLMEDDEEPIVEDVMMSSEGRIEDLNEGMDFDTMDIDLPPSKNRRERTELKPDFFDPASIMDESVLGVSMF
partner: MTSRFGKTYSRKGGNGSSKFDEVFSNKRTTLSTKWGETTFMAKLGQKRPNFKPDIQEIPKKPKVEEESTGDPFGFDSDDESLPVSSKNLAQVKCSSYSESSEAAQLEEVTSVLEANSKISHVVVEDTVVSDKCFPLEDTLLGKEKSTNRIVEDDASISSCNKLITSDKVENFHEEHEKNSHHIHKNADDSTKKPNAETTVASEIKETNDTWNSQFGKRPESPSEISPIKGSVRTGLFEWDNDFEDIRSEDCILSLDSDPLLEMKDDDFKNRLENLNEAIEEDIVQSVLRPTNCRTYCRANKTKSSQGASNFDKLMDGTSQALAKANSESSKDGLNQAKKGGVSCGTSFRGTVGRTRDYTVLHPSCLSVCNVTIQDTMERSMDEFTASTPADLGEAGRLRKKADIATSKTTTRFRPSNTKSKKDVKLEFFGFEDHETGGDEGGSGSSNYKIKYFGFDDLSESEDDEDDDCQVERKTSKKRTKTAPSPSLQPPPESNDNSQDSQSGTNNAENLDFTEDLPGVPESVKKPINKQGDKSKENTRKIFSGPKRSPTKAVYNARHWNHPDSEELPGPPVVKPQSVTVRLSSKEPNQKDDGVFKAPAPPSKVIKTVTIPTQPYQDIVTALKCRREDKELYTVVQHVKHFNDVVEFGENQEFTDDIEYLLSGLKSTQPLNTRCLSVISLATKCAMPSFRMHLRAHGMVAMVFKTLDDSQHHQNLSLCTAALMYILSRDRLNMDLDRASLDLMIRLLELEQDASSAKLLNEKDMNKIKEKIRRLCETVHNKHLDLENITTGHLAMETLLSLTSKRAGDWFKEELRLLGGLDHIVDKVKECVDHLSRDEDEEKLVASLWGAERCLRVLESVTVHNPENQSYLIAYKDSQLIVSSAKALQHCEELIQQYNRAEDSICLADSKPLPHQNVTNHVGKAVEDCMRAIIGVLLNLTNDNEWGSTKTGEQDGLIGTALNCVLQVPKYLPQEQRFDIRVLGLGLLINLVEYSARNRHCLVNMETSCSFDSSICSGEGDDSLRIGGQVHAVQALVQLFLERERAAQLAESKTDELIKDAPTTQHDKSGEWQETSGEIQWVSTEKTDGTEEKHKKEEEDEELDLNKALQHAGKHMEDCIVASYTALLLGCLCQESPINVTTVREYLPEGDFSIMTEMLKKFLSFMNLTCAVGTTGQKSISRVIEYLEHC
B2: Cohesin subunit SA-2 (Homo sapiens), Q8N3U4 (parent)
chain: B1 chain
partner: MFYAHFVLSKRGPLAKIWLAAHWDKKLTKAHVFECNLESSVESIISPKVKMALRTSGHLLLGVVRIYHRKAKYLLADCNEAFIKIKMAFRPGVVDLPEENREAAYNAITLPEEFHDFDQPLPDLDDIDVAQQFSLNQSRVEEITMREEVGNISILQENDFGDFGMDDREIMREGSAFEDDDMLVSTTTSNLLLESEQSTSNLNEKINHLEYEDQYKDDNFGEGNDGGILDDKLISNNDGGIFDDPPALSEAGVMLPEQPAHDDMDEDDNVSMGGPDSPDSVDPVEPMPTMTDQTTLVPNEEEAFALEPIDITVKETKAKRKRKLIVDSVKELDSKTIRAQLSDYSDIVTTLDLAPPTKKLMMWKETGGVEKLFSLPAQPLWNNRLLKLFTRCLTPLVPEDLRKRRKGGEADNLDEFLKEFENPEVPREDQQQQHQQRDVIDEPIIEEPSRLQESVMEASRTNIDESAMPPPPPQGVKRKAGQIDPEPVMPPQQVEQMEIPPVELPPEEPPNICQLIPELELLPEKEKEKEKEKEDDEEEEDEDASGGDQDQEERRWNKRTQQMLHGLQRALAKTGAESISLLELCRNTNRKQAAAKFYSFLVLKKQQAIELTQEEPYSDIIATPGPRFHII
B3: Double-strand-break repair protein rad21 homolog (Homo sapiens), O60216 (parent)
chain: B2 partner
partner: B1 chain

Variants of: B1
Conditions: with wapl_human WAPL

effect of a mutation on the interaction	Variant
disrupting interaction strength	K290E
disrupting interaction strength	D326K
disrupting interaction strength	K330E
decreasing interaction strength	W334A

Variants of: B2
Conditions: with rad21_human RAD21, O60216

effect of a mutation on the interaction	Variant
disrupting interaction strength	D793K

Variants of: B3
Conditions: with stag2_human STAG2, Q8N3U4

effect of a mutation on the interaction	Variant
disrupting interaction strength	L385A;L388A;F389A

Variants of: B3
Conditions: with stag2_human STAG2, Q8N3U4
Remark: another data set of the same source

effect of a mutation on the interaction	Variant
decreasing interaction strength	D327K
